Assay results published in patent publication US20170306037A1 (Novartis, published 2017).
Residue numbers refer to the chain shown, from its start. Blank lines part the entries; values can stand above or below the binder they belong to.

Experiments:
[1] = target: T1, human GITR expressed on cells (human, UniProt Q9Y5U5 27-241); test: cell-based or functional assay
T1 sequence: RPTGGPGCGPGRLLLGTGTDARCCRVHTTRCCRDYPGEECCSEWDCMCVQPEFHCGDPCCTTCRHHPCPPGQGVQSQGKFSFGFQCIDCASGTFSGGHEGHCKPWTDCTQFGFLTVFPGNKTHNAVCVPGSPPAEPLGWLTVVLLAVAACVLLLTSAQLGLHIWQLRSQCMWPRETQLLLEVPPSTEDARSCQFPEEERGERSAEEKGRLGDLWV

DcR1 = target: T2, DcR1 (human, UniProt O14798); test: specificity ELISA, bacterial lysate on HisGrab nickel plate
T2 sequence (receptor, looked up): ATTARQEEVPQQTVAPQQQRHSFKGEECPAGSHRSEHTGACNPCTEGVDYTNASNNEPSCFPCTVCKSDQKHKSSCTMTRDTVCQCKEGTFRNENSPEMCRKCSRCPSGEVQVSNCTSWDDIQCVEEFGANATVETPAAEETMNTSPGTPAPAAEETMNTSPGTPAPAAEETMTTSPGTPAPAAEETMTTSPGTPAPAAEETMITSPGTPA
Experimental: (§1) For the specificity ELISA, a crude cell lysate was made from bacteria expressing members of the TNFRSF family. To prevent nonspecific binding to the plate 50 μL of 5% BSA was added per mL of bacterial lysate. […] The plate was then rinsed three times with PBST, then MAB was diluted to 0.5 μg/mL in 10% FBS in PBS and 100 μL was added to each well. The plate was incubated for 1 hour at room temperature and then rinsed three times with PBST. Anti-human kappa antibody (Sigma #A7164) conjugated to HRP was diluted 1:5000 in 1:1 PBST: 10% FBS in PBS and 100 μL added to each well. The plate was incubated for 1 hour at room temperature, and then washed three times with PBST. 100 μL of SureBlue TMB substrate was added to each well and the plate was incubated for about 10 min at room temperature before stopping the reaction with 100 μL /well of 2N H₂SO₄.

DR5 = DR5 (human, UniProt O14763); test: as above
Experimental: as §1

EC50, NFκB-luciferase reporter in 293 cells overexpressing human GITR, antibody cross-linked [1]: ~2.5 nM
B1: MAB4 (IgG1 kappa) (antibody, V domains shown)
VH: EVQLVESGGGLVQSGGSLRLSCAASGFSLSSYGVDWVRQAPGKGLEWVGVIWGGGGTYYASSLMGRFTISRDNSKNTLYLQMNSLRAEDTAVYYCAKHAYGHDGGFAMDYWGQGTLVTVSS
VL: EIVMTQSPATLSVSPGERATLSCRASESVSSNVAWYQQRPGQAPRLLIYGASNRATGIPARFSGSGSGTDFTLTISRLEPEDFAVYYCGQSYSYPFTFGQGTKLEIKR
binding result (DcR1): no binding (tested: not on the sheet; paragraph 335: 0.5 µg/mL)
binding result (DR5): no binding (tested: not on the sheet; paragraph 335: 0.5 µg/mL)

EC50, NFκB-luciferase reporter in 293 cells overexpressing human GITR, antibody cross-linked [1]: ~2.5 nM
B2: MAB5 (IgG1 kappa) (antibody, V domains shown)
VH: B1 VH with V48L, A60T
VL: B1 VL
notes: also called MABS (misprint of MAB5)
binding result (DcR1): no binding (tested: not on the sheet; paragraph 335: 0.5 µg/mL)
binding result (DR5): no binding (tested: not on the sheet; paragraph 335: 0.5 µg/mL)
